Columns and labels:
[1] = target: MHC Class II products on splenic antigen-presenting cells of SJL mice (H-2 s) (mouse); test: flow cytometry, inhibition of binding to SJL splenic APC; competitor: biotinylated peptide Ia
[2] = target: MHC Class II products on splenic antigen-presenting cells of SJL mice (H-2 s) (mouse); test: flow cytometry, inhibition of binding to SJL splenic APC; competitor: biotinylated peptide IIIa
[3] = target: MHC Class II products on splenic antigen-presenting cells of C57BL/6 mice (H-2 b) (mouse) (UniProt P14434); test: flow cytometry, inhibition of binding to C57BL/6 splenic APC; competitor: biotinylated peptide IIIa
[4] = target: T1, MHC Class II products on splenic antigen-presenting cells of BALB/c mice (H-2 d) (mouse) (UniProt P04228); test: flow cytometry, inhibition of binding to BALB/c splenic APC; competitor: biotinylated peptide IIIa
T1 sequence (alpha): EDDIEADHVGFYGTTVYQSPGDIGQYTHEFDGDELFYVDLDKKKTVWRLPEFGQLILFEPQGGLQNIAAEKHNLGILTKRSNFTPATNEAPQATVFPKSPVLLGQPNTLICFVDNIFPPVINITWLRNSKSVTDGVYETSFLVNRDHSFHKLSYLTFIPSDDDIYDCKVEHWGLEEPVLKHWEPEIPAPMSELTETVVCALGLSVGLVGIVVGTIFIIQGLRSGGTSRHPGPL
T1 sequence (beta): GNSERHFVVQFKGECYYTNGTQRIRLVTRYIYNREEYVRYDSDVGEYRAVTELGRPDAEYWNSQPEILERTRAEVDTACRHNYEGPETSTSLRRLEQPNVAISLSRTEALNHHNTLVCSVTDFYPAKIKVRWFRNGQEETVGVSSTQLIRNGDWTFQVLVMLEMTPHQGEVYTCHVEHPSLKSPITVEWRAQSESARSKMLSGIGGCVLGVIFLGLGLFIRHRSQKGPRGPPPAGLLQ

[5] = target: T1, MHC Class II products on splenic antigen-presenting cells of BALB/c mice (H-2 d) (mouse); test: flow cytometry, inhibition of binding to BALB/c splenic APC; competitor: biotinylated peptide Ia
[6] = target: MHC Class II products on splenic antigen-presenting cells of C3H.SW mice (H-2 b) (mouse) (UniProt P14434); test: flow cytometry, inhibition of binding to C3H.SW splenic APC; competitor: biotinylated peptide Ia
[7] = target: MHC Class II products on splenic antigen-presenting cells of C3H.SW mice (H-2 b) (mouse) (UniProt P14434); test: flow cytometry, inhibition of binding to C3H.SW splenic APC; competitor: biotinylated peptide IIIa
[8] = target: MHC Class II products on splenic antigen-presenting cells of C57BL/6 mice (H-2 b) (mouse) (UniProt P14434); test: flow cytometry, inhibition of binding to C57BL/6 splenic APC; competitor: biotinylated peptide Ia

%inhibition [1] | %inhibition [2] | %inhibition [3] | %inhibition [4] | %inhibition [5] | %inhibition [6] | %inhibition [7] | %inhibition [8] | Substance
100% | 92.8% | – | – | – | – | – | – | 10.3.6.2 (anti-I-A^s) (antibody)
– | – | 59.3% | 0% | 0% | 60% | 84.4% | 82% | 34-5-3 (anti-I-A^b, Pharmingen) (antibody)
0% | 0% | 0% | 100% | 76.7% | 0% | 25% | 0% | MKD6 (anti-I-A^d, Beckton-Dickinson) (antibody)

— EP0817650B1
